Reference: article PMC5762417

Legend:
[1] = target: Rev (Human immunodeficiency virus 1) (UniProt P04325); experiment: fluorescence binding; conditions: cited from earlier work
[2] = target: Rev WT, labelled with Alexa 555 (HIV-1) (UniProt P04616); experiment: fluorescence polarisation
DDX21 = experiment: EMSA

Molecule | Kd [2] [nM] | other results
DDX1 DEAD domain (from UniProt Q92499) |  | Kd [1]: 79 nM
DDX3 (from UniProt O00571 1-662) (enzyme) | 122 | 
DDX3 DEAD domain (aa 211-403) (from UniProt O00571 211-403) (domain or fragment) | 200 | 
RRE RNA (EMSA) |  | Kd (DDX21): 37 nM
DDX21 (enzyme) MPGKLRSDAGLESDTAMKKGETLRKQTEEKEKKEKPKSDKTEEIAEEEETVFPKAKQVKKKAEPSEVDMNSPKSKKAKKKEEPSQNDISPKTKSLRKKKEPIEKKVVSSKTKKVTKNEEPSEEEIDAPKPKKMKKEKEMNGETREKSPKLKNGFPHPEPDCNPSEAASEESNSEIEQEIPVEQKEGAFSNFPISEETIKLLKGRGVTFLFPIQAKTFHHVYSGKDLIAQARTGTGKTFSFAIPLIEKLHGELQDRKRGRAPQVLVLAPTRELANQVSKDFSDITKKLSVACFYGGTPYGGQFERMRNGIDILVGTPGRIKDHIQNGKLDLTKLKHVVLDEVDQMLDMGFADQVEEILSVAYKKDSEDNPQTLLFSATCPHWVFNVAKKYMKSTYEQVDLIGKKTQKTAITVEHLAIKCHWTQRAAVIGDVIRVYSGHQGRTIIFCETKKEAQELSQNSAIKQDAQSLHGDIPQKQREITLKGFRNGSFGVLVATNVAARGLDIPEVDLVIQSSPPKDVESYIHRSGRTGRAGRTGVCICFYQHKEEYQLVQVEQKAGIKFKRIGVPSATEIIKASSKDAIRLLDSVPPTAISHFKQSAEKLIEEKGAVEALAAALAHISGATSVDQRSLINSNVGFVTMILQCSIEMPNISYAWKELKEQLGEEIDSKVKGMVFLKGKLGVCFDVPTASVTEIQEKWHDSRRWQLSVATEQPELEGPREGYGGFRGQREGSRGFRGQRDGNRRFRGQREGSRGPRGQRSGGGNKSNRSQNKGQKRSFSKAFGQ | 21 | 
DDX21 DEAD domain (aa 217-396) (domain or fragment) FHHVYSGKDLIAQARTGTGKTFSFAIPLIEKLHGELQDRKRGRAPQVLVLAPTRELANQVSKDFSDITKKLSVACFYGGTPYGGQFERMRNGIDILVGTPGRIKDHIQNGKLDLTKLKHVVLDEVDQMLDMGFADQVEEILSVAYKKDSEDNPQTLLFSATCPHWVFNVAKKYMKSTYEQ | 60 | 
DDX21(183-620) (domain or fragment) QKEGAFSNFPISEETIKLLKGRGVTFLFPIQAKTFHHVYSGKDLIAQARTGTGKTFSFAIPLIEKLHGELQDRKRGRAPQVLVLAPTRELANQVSKDFSDITKKLSVACFYGGTPYGGQFERMRNGIDILVGTPGRIKDHIQNGKLDLTKLKHVVLDEVDQMLDMGFADQVEEILSVAYKKDSEDNPQTLLFSATCPHWVFNVAKKYMKSTYEQVDLIGKKTQKTAITVEHLAIKCHWTQRAAVIGDVIRVYSGHQGRTIIFCETKKEAQELSQNSAIKQDAQSLHGDIPQKQREITLKGFRNGSFGVLVATNVAARGLDIPEVDLVIQSSPPKDVESYIHRSGRTGRAGRTGVCICFYQHKEEYQLVQVEQKAGIKFKRIGVPSATEIIKASSKDAIRLLDSVPPTAISHFKQSAEKLIEEKGAVEALAAALAHISG | 48 | 
DDX1 (enzyme) MAAFSEMGVMPEIAQAVEEMDWLLPTDIQAESIPLILGGGDVLMAAETGSGKTGAFSIPVIQIVYETLKDQQEGKKGKTTIKTGASVLNKWQMNPYDRGSAFAIGSDGLCCQSREVKEWHGCRATKGLMKGKHYYEVSCHDQGLCRVGWSTMQASLDLGTDKFGFGFGGTGKKSHNKQFDNYGEEFTMHDTIGCYLDIDKGHVKFSKNGKDLGLAFEIPPHMKNQALFPACVLKNAELKFNFGEEEFKFPPKDGFVALSKAPDGYIVKSQHSGNAQVTQTKFLPNAPKALIVEPSRELAEQTLNNIKQFKKYIDNPKLRELLIIGGVAARDQLSVLENGVDIVVGTPGRLDDLVSTGKLNLSQVRFLVLDEADGLLSQGYSDFINRMHNQIPQVTSDGKRLQVIVCSATLHSFDVKKLSEKIMHFPTWVDLKGEDSVPDTVHHVVVPVNPKTDRLWERLGKSHIRTDDVHAKDNTRPGANSPEMWSEAIKILKGEYAVRAIKEHKMDQAIIFCRTKIDCDNLEQYFIQQGGGPDKKGHQFSCVCLHGDRKPHERKQNLERFKKGDVRFLICTDVAARGIDIHGVPYVINVTLPDEKQNYVHRIGRVGRAERMGLAISLVATEKEKVWYHVCSSRGKGCYNTRLKEDGGCTIWYNEMQLLSEIEEHLNCTISQVEPDIKVPVDEFDGKVTYGQKRAAGGGSYKGHVDILAPTVQELAALEKEAQTSFLHLGYLPNQLFRTF | 41 | 
